In patent US20240190964A1 (KYMAB, published 2024):

Biological target: T1, human ICOS (inducible T-cell co-stimulator) (human, UniProt Q9Y6W8 21-199)
T1 construct: also called the ICOS receptor
T1 sequence: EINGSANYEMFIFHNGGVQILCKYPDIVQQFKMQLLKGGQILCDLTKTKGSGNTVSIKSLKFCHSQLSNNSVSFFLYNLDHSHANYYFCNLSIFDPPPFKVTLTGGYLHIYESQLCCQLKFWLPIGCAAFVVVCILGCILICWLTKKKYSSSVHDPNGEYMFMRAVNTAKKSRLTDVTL
Assay: ICOS receptor occupancy (free ICOS detection) on peripheral CD4 memory T cells in longitudinal PBMC samples, chipcytometry, patient dosed with KY1044 in vivo

B1: KY1044 (aka STIM003), fully human IgG1 anti-ICOS antibody (antibody, V domains shown)
VH: EVQLVESGGGVVRPGGSLRLSCVASGVTFDDYGMSWVRQAPGKGLEWVSGINWNGGDTDYSDSVKGRFTISRDNAKNSLYLQMNSLRAEDTALYYCARDFYGSGSYYHVPFDYWGQGILVTVSS
VL: EIVLTQSPGTLSLSPGERATLSCRASQSVSRSYLAWYQQKRGQAPRLLIYGASSRATGIPDRFSGDGSGTDFTLSISRLEPEDFAVYYCHQYDMSPFTFGPGTKVDIKR
B1: binds.
